Reference: paper PMC9837058, “Oncogenic mutations of PIK3CA lead to increased membrane recruitment driven by reorientation of the ABD, p85 and C-terminus” (Nature Communications, 2023)
[ ]: non-standard residue; d: D form. pY = N[C@@H](Cc1ccc(OP(=O)(O)O)cc1)C(=O)O

Legend:
Assay in all cases: HDX-MS; purified p110α/p85α complex (9 pmol) incubated with pY peptide (1 µl of 50 µM) or buffer for 15 min on ice; exchange 3 s on ice and 3, 30, 300, 3000 s at 20 °C; 20 mM HEPES pH 7.5, 100 mM NaCl
Settings in all cases: both partners purified
[1] = target: T1, p110α ΔCter (1–1048)-p85α complex (human, UniProt P42336 1-1048; P27986 1-724)
T1 construct: p85α, human, residues 1-724; Heterodimer of m7 and m2; source: Sf9 (baculovirus), co-expressed, purified (Ni-NTA, Strep column, Q column, gel filtration); not shown: His10, N-terminal, cleaved; 2x Strep, N-terminal, cleaved

[2] = target: T2, p110α H1047R-p85α complex (human, UniProt P42336 1-1068; P27986 1-724, H1047R)
T2 construct: p110α, human, full length with the oncogenic mutation H1047R; p85α, human, residues 1-724; Heterodimer of m4 and m2; also called p110α/p85α H1047R; source: Sf9 (baculovirus), co-expressed, purified (Ni-NTA, Strep column, Q column, gel filtration); not shown: His10, N-terminal, cleaved; 2x Strep, N-terminal, cleaved

[3] = target: T3, p110α-p85α complex (wild type, full length) (human, UniProt P42336 1-1068; P27986 1-724)
T3 construct: p85α, human, residues 1-724; Heterodimer of m1 and m2; also called WT p110α/p85α; full-length p110α-p85α; source: Sf9 (baculovirus), co-expressed, purified (Ni-NTA, Strep column, Q column, gel filtration); not shown: His10, N-terminal, cleaved; 2x Strep, N-terminal, cleaved

Measured: binding result

T2 sequence (P42336 whole entry H1047R, chain 1 of 2, the tested form may be a part): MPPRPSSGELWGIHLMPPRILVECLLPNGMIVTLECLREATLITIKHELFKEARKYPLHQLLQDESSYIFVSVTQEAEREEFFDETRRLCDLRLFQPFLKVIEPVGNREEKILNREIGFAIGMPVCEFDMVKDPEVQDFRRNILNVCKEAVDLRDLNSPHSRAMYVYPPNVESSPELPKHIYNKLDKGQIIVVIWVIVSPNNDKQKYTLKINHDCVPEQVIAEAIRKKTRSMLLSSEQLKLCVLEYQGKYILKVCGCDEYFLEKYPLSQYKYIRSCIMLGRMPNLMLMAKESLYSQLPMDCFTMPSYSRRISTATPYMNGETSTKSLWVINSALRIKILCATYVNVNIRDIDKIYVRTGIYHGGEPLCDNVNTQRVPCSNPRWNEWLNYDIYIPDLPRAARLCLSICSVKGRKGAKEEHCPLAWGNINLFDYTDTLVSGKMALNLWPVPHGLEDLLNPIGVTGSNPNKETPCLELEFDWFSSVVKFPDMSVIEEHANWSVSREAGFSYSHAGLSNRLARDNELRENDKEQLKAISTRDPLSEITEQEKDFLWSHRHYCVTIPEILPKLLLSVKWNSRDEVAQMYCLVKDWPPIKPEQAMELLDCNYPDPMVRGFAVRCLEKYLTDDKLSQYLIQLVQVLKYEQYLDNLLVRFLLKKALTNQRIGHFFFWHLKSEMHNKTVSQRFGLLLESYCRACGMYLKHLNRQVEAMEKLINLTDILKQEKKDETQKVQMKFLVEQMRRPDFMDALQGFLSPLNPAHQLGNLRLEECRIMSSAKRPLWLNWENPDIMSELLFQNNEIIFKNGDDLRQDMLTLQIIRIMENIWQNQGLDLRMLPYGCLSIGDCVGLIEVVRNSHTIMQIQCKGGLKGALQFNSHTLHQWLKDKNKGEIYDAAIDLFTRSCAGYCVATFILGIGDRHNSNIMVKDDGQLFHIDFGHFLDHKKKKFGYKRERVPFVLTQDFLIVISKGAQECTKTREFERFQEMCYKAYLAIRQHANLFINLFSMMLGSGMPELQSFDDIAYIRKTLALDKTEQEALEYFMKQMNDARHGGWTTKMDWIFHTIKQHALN
T2 sequence (P27986 whole entry, chain 2 of 2, the tested form may be a part): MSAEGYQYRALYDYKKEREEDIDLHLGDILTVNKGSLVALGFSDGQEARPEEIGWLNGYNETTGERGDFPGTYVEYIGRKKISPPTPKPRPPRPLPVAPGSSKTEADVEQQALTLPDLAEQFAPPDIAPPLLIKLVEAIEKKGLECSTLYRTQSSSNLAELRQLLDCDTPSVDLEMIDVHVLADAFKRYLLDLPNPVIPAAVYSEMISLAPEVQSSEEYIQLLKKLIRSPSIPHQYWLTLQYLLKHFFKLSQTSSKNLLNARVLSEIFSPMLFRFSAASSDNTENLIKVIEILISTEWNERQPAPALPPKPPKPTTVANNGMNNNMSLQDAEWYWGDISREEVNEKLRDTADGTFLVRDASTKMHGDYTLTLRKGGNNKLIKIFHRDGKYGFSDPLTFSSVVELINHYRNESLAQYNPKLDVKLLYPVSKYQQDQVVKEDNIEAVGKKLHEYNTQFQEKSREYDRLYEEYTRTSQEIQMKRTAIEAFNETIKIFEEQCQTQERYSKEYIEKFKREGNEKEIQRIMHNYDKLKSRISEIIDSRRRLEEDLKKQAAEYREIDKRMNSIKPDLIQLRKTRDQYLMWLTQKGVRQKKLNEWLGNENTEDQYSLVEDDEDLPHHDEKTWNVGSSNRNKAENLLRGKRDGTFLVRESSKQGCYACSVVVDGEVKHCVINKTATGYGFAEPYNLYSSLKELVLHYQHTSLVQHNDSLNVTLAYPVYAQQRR
T3 sequence (P42336 whole entry, chain 1 of 2, the tested form may be a part): as the sequence (P42336 whole entry H1047R, chain 1 of 2, the tested form may be a part) above, with R1047H counted along it
T3 sequence (P27986 whole entry, chain 2 of 2, the tested form may be a part): as the sequence (P27986 whole entry, chain 2 of 2, the tested form may be a part) above
T1 sequence (P42336 1-1048, stated change not applied, chain 1 of 2): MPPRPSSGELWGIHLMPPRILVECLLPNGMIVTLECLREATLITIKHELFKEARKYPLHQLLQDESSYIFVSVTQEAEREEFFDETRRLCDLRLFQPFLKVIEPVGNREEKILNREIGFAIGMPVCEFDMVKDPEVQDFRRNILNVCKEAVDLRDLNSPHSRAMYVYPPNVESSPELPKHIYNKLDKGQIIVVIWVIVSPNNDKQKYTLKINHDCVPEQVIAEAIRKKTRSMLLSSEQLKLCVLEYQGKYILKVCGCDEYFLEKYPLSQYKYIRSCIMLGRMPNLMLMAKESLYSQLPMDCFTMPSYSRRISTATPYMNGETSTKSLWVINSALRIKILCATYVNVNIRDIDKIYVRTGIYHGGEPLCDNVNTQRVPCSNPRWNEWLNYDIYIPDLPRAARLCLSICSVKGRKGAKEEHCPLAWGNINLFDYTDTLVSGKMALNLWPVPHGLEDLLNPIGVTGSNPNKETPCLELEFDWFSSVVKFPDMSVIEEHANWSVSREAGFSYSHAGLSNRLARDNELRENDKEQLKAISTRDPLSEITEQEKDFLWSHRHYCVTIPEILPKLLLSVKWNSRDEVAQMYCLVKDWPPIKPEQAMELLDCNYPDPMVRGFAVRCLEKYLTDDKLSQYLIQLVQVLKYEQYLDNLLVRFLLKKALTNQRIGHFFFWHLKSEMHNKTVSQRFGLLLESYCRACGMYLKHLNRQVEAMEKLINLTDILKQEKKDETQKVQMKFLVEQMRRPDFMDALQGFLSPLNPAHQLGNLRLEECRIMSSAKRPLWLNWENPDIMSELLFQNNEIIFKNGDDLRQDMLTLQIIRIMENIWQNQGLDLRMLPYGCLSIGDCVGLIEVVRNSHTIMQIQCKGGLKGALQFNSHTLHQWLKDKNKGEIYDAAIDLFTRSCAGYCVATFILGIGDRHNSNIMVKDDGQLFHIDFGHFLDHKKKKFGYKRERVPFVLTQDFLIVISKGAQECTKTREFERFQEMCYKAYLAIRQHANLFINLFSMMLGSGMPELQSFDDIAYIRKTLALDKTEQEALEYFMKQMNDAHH
T1 sequence (P27986 whole entry, stated change not applied, chain 2 of 2, the tested form may be a part): as the sequence (P27986 whole entry, chain 2 of 2, the tested form may be a part) above

B1: PDGFR bis-phosphorylated pY peptide (PDGFR residues 735–767, pY740, pY751) (peptide)
peptide: H-ESDGG[pY]MDMSKDESID[pY]VPMLDMKGDIKYADIE-OH
SMILES: CC[C@H](C)[C@H](NC(=O)[C@H](CC(=O)O)NC(=O)[C@H](C)NC(=O)[C@H](Cc1ccc(O)cc1)NC(=O)[C@H](CCCCN)NC(=O)[C@@H](NC(=O)[C@H](CC(=O)O)NC(=O)CNC(=O)[C@H](CCCCN)NC(=O)[C@H](CCSC)NC(=O)[C@H](CC(=O)O)NC(=O)[C@H](CC(C)C)NC(=O)[C@H](CCSC)NC(=O)[C@@H]1CCCN1C(=O)[C@@H](NC(=O)[C@H](Cc1ccc(OP(=O)(O)O)cc1)NC(=O)[C@H](CC(=O)O)NC(=O)[C@@H](NC(=O)[C@H](CO)NC(=O)[C@H](CCC(=O)O)NC(=O)[C@H](CC(=O)O)NC(=O)[C@H](CCCCN)NC(=O)[C@H](CO)NC(=O)[C@H](CCSC)NC(=O)[C@H](CC(=O)O)NC(=O)[C@H](CCSC)NC(=O)[C@H](Cc1ccc(OP(=O)(O)O)cc1)NC(=O)CNC(=O)CNC(=O)[C@H](CC(=O)O)NC(=O)[C@H](CO)NC(=O)[C@@H](N)CCC(=O)O)[C@@H](C)CC)C(C)C)[C@@H](C)CC)C(=O)N[C@@H](CCC(=O)O)C(=O)O
notes: PDGFR residues 735-767; human has V where this peptide has I at two places; also called phosphopeptide; source: synthetic peptide; bought: New England Peptide
binds: all assays above
